According to patent US20060166332:

Molecular target: Cre recombinase (Bacteriophage P1?) (UniProt P06956)
Assay: cell_activity
Settings: pCH110 control without loxP in Sure:cre

Chain of UniProt P06956 (P06956 whole entry): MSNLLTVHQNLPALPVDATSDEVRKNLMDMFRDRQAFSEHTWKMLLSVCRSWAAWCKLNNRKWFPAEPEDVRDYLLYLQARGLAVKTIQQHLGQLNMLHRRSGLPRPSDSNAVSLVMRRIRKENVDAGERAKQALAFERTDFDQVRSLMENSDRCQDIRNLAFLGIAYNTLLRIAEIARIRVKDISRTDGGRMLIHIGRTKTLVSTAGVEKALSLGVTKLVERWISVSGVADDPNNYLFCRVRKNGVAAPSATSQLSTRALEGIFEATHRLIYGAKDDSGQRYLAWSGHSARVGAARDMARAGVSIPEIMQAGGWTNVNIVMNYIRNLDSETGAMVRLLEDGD

In the case of pCH110 plasmid without loxP, the activity (% white colonies) is reported as 0.
